Data from patent publication US20210198347A1 (Chugai, published 2021).

T1: Native proenzyme human C1s (Comptech A103) (human, UniProt P09871 16-688)
T1 construct: mature; Bought native protein; also called native human C1s Proenzyme; native human C1s proenzyme protein (CompTech)
T1 sequence (looked up): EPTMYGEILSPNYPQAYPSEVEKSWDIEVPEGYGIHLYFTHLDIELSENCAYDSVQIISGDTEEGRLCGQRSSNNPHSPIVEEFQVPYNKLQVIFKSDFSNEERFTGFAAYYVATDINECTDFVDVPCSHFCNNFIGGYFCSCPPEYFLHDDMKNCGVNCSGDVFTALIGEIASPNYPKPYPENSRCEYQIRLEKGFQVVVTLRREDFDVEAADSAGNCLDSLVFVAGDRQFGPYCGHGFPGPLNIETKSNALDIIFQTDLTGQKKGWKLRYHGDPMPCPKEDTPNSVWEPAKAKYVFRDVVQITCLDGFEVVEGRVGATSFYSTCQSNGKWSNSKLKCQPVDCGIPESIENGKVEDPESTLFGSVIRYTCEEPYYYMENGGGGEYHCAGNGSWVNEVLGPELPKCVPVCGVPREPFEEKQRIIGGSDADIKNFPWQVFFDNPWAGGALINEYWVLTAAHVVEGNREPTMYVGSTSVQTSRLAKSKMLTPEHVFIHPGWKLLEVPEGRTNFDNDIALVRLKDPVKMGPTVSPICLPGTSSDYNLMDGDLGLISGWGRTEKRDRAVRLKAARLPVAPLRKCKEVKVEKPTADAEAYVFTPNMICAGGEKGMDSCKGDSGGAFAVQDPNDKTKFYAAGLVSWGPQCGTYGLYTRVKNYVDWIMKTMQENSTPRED

T2: recombinant human C1s CCP1-CCP2-SP-His (human, UniProt P09871 292-688)
T2 construct: Truncated protein lacking the CUB1-EGF-CUB2 domain; also called human C1s CCP1-CCP2-SP M292-D688
T2 sequence: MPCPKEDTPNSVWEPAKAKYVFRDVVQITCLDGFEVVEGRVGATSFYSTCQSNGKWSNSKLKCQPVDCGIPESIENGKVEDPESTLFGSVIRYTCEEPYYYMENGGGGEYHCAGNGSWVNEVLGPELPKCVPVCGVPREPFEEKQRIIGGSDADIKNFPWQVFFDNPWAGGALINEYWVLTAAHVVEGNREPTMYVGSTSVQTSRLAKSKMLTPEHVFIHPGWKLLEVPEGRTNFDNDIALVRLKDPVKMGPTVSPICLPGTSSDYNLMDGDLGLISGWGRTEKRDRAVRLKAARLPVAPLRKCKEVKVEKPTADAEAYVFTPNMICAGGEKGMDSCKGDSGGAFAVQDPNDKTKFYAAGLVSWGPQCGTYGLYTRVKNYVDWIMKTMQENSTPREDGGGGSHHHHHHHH


Assays:
[1] = target: T1, Native proenzyme human C1s (Comptech …); assay: SPR (BIACORE T200, 37 degrees C, pH 7.4), antibody captured by protein A/G, C1s 50 nM
Description: The binding specificities of the six C1s CUB1-EGF-CUB2 binders were determined at 37 degrees C. using BIACORE® T200 instrument (GE Healthcare). Recombinant Protein A/G (Pierce) was immobilized onto all flow cells of a CM4 sensor chip using an amine coupling kit (GE Healthcare). Antibodies and analytes were prepared in 7(+) buffer (20 mM ACES, 150 mM NaCl, 1.2 mM CaCl₂, 0.05% Tween 20, 0.005% NaN₃, pH 7.4). Each antibody was captured onto the sensor surface by protein A/G. Antibody capture levels were aimed at 100 resonance unit (RU). Native proenzyme human C1s (Comptech A103) (at 50 nM as a monomer) or recombinant human C1s CCP1-CCP2-SP-His (at 100 nM as a monomer) was injected, followed by dissociation. Sensor surface was regenerated each cycle with 10 mM Glycine-HCl pH 1.5. The six C1s CUB1-EGF-CUB2 binders bound to the native proenzyme human C1s, but not recombinant human C1s CCP1-CCP2-SP-His, which is a truncated protein lacking the CUB1-EGF-CUB2 domain.

[2] = target: T2, recombinant human C1s CCP1-CCP2-SP-His; assay: SPR (BIACORE T200, 37 degrees C, pH 7.4, 1.2 mM CaCl2), antibody captured by protein A/G

| Binder | binding result [1] | binding result [2] |
| --- | --- | --- |
| COS0448oo-SG1148 (antibody, human IgG1, kappa, V domains shown, Rabbit B-cell derived variable regions; also called COS448; COS44800(-SG1148)) VH: QSVEESGGRLVTPGTPLTLTCTVSGFSLSNYGMIWVRQAPGEGLEYIGFVSGSGSAYYANWVKGRFTISKTSTTVDLKMTSLTTEDTATYFCARGAYNTDSYSYSLYYGMDLWGPGTLVTVSS VL: QIVMTQTPASVEVAVGGTVTIKCQASQSIYSYLSWYQQKPGQPPKLLIYGASTLASGVPSRFKGSRSGTEFTLTISDLECADAATYYCQSNYATTTTYGTFGGGTKVEIKR | binds | no binding (tested: 100 nM) |
| COS0499ee-SG1148 (antibody, human IgG1, kappa, V domains shown, also called COS499; COS499ee(-SG1148)) VH: QSLEESGGRLVTPGTPLTLTCTASGFSLSNYNMAWVRQAPGKGLEWIGIIETTTNTYYARWARGRFTISKTSSTTVDLQIASPTTEDTATYFCGRRVSNSHDLWGPGTLVTVSS VL: AYDMTQTPASVSAAVGGTVTINCQASQTIGGWCAWYQQKPGQPPKLLIYKASTLASGVSSRFKGSGSGTEFALTISDLECDDAATYYCQHGYYTSSTIENTFGGGTKVEIKR | binds | no binding (tested: 100 nM) |
| COS0547gg-SG1148 (antibody, human IgG1, kappa, V domains shown) VH: QSLEESGGRLVTPGTPLTLTCTASGFSLSSYHMDWVRQAPGKGLEWIGIITYTGDTYYATWAKGRFTISKTSSTTVDLKMASLTTEDTATYFCARRQYDAYNVWGPGTLVTVSS VL: AYDMTQTPASVEVAVGGTVTIKCQASQSINNYLAWYQQKPGQPPKLLIYYASTLASGVPSRFKGSRSGTEFTLTISGVECADAATYYCQHGYYTSSNIDSVFGGGTKVEIKR | binds | no binding (tested: 100 nM) |
| COS0631gg-SG1148 (antibody, human IgG1, kappa, V domains shown) VH: QSVEESGGRLVTPGTPLTLTCTVSGFSLSRYSMGWVRQAPGKGLEWIGIIYADGGAYYASWAKGRFTISKTSTTMDLKVTSPTTEDTATYFCARGQFINSNEFFNPWGPGTLVTVSS VL: QVLTQTASSVSAVVGGTVTINCQASQSLHNNKNLAWYQQKPGQPPRLLIYYASTLASGVSSRFKGSGSGTQFTLTISDLECDDAATYYCAGEFSCSNGDCNAFGGGTKVEIKR | binds | no binding (tested: 100 nM) |
| COS0637cc-SG1148 (antibody, human IgG1, kappa, V domains shown) VH: QSLEESGGRLVTPGTPLTLTCTASGFSLSAYAMNWVRQAPGKGLEWIGLIYGSGSTFYASWAKGRFTISKTSTTVDLKMTSLTTEDTATYFCARGRSVNYNSDFKLWGPGTLVTVSS VL: QVLTQTPSSVSAAVGGTVTINCQASQSLHDKKNLAWYQHKPGQRPNLLIYGASTLESGVPSRFKGSGSGTEYTLTISDLECDDAAAYYCQGEFSCSSADCNTFGGGTKVEIKR | binds | no binding (tested: 100 nM) |
